In patent publication US20240209089A1:
Residue numbers refer to the chain shown, from its start.

B1: phage clone No. 77 (S29) (VHH)
VHH: QLQLVESGGGLVQPGGSLRLSCTASGIIFSINTMGWYRQAPGKQRELVADISSFGSTNYADSVKGRFTISRDNAKNSVYLQMNSLKPEDTAVYYCNAHDKGWGTVDSWGQGTQVTVSS
B2: phage clone No. 54 (S6) (VHH)
VHH: QVQLVESGGGLVQPGGSLRLSCAVSGTIFSINTMGWYRQVPGKQRELVATITSSGSTKYADSVKGRFTVSRDNAKRTVFLQMDSLKPEDTAVYYCHANDVGWGTVNAWGQGTLVTVSS
B3: phage clone No. 29 (C29) (VHH)
VHH: QVQLVESGGGLVQAGGSLRLSCVASGFTSDDYVIGWFRQAPGKEREGVSCISSSDGTTNYADSVKGRFTISSDNAKNTVYLQMNSLKPEDTAVYYCAADPMRVCPYSGTYYGILGFGTSGQGTQVTVSS
B4: phage clone No. 24 (C24) (VHH)
VHH: QVQLVESGGGLVQPGGSLRLSCAASGPIFSINTMGWYRQAPGKQRELVATMHSTGSTNYADSVKGRFTISRDNAKKTVYLQMNSLKPDDTAVYYCHVDDTGWGTVDSWGQGIQVTVSS
B5: phage clone No. 70 (S22) (VHH)
VHH: B4 VHH with V2L, P27S, T100M, I112T
B6: phage clone No. 30 (C30) (VHH)
VHH: B4 VHH with A23V, P27S, S30A, T50D, T77K, T100R, I112T
B7: phage clone No. 45 (C45) (VHH)
VHH: B4 VHH with A40V, I112T
B8: phage clone No. 61 (S13) (VHH)
VHH: B4 VHH with V2L, A23V, A24V, P27S, S30A, T54Y, D88A, V97A, I112T
B9: phage clone No. 53 (S5) (VHH)
VHH: QVQLVESGGGLVQAGGSLRVSCAASGGTFSSTAMGWFRQAPGKEREFVAAISWSGGYTYYADSVRGRFTISRDNALNTVSLQMNSLKPEDTAVYYCAADISGLDTVAAGIFTEPNIDYWGKGTLVTVSS
B10: phage clone No. 27 (C27) (VHH)
VHH: QLQLVESGGGLVQPGGSLRLSCVVSGSIFAINTMGWYRQAPGKQRELVATMHSGGSTNYADSVKGRFTISRDAAPKTVYLQMNSLKPADTAVYYCHADDSGWGTVDSWGQGIQVTVSS
B11: phage clone No. 46 (C46) (VHH)
VHH: QVQLVESGGGLVQAGGSLRLSCAASGVTFDDLAIGWFRQVPGKGREGVSTIGTSDGTAYYADSVKGRFTISSDNAKNTVYLQMNSLKPEDTAVYYCAVDLDYGLGSLLPMGYDYWGQGTQVTVSS
B12: phage clone No. 66 (S18) (VHH)
VHH: QLQLVESGGGLVQPGGSLRLSCAASGSIFSINTMGWYRQAPGKQRELVATMTSHGSTNYADSVKGRFTISRDNSKNTVYLQMNSLKLQDTAVYYCNANDMGWGTVDAWGQGTLVTVSS
B13: phage clone No. 37 (C37) (VHH)
VHH: QLQLVESGGGLVQAGGSLRLSCAASGLTFEDYAIGWFRQAPGKEREGISCIRIYDGNTYSAESVKGRFTISSDNAKNQVYLQINTLKPEDTAVYYCAAGSYYSCSVYPDYDMDYWGKGTLVTVSS
B14: phage clone No. 42 (C42) (VHH)
VHH: B13 VHH with L2V
B15: phage clone No. 2 (C2) (VHH)
VHH: B13 VHH with L2V, A14P, L27F, F29L, E30D, D31Y
B16: phage clone No. 55 (S7) (VHH)
VHH: QLQLVESGGGLVQPGGSLRLSCAASGSIFSINGMGWYRQAPGKQREAVAVITSGGKIDYLDSVKGRFTISRDSAKNTVALQMNSLKPEDTAVYYCNAYGDVRRGEVRWGQGTQVTVSS
B17: phage clone No. 71 (S23) (VHH)
VHH: B16 VHH with L2V, A47L, V50A, I57T, R102Q
B18: phage clone No. 20 (C20) (VHH)
VHH: QVQLVESGGGLVQPGGSLRLSCAASGSIFSINTMGWYRQAPGKQRELVATMHSTGSTNYADSVKGRFTISRDNAKKTVYLQMNSLEPDDTAVYYCHVDDTGWGTVDSWGQGTQVTVS

Target: Fc protein
Test: phage ELISA on coated Fc protein

**Q.** For B1, which OD450 is on record?
**A.** Its OD450 is 0.08.

**Q.** Which OD450 does the source give for B2 here?
**A.** The OD450 was 0.058.

**Q.** Which OD450 does the source give for B3 here?
**A.** Its OD450 is 0.115.

**Q.** For B4, which OD450 is on record?
**A.** Its OD450 is 0.083.

**Q.** Which OD450 does the source give for B5 here?
**A.** Its OD450 is 0.059.

**Q.** For B6, which OD450 is on record?
**A.** Its OD450 is 0.103.

**Q.** With B7 as the binder, how does the OD450 read?
**A.** Its OD450 is 0.115.

**Q.** With B8 as the binder, how does the OD450 read?
**A.** Its OD450 is 0.094.

**Q.** For B9, which OD450 is on record?
**A.** The OD450 was 0.068.

**Q.** With B10 as the binder, how does the OD450 read?
**A.** The OD450 was 0.084.

**Q.** With B11 as the binder, how does the OD450 read?
**A.** Its OD450 is 0.081.

**Q.** How did the OD450 turn out when B12 was run?
**A.** Its OD450 is 0.081.

**Q.** How did the OD450 turn out when B13 was run?
**A.** Its OD450 is 0.11.

**Q.** Which OD450 does the source give for B14 here?
**A.** Its OD450 is 0.111.

**Q.** How did the OD450 turn out when B15 was run?
**A.** Its OD450 is 0.149.

**Q.** Which OD450 does the source give for B16 here?
**A.** The OD450 was 0.059.

**Q.** How did the OD450 turn out when B17 was run?
**A.** Its OD450 is 0.093.

**Q.** With B18 as the binder, how does the OD450 read?
**A.** The OD450 was 0.133.
